Tests used:
Assay in all cases: peptide-array ELISA (CYS.S) [Continued]
[1] = molecular target: T1, PE2LS2…2RPGWY2AL
T1 sequence (peptide, 2 = Cys(ACM)): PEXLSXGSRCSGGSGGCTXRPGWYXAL

[2] = molecular target: T2, …2GGSGGICT2RPGWY2A
T2 sequence (peptide, 2 = Cys(ACM)): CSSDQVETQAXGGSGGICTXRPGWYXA

[3] = molecular target: T3, …2RPGWY
T3 sequence (peptide, 2 = Cys(ACM)): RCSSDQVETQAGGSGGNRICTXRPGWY

[4] = molecular target: T4, …2…
T4 sequence (peptide, 2 = Cys(ACM)): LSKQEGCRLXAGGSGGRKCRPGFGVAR

[5] = molecular target: T5, Y2…
T5 sequence (peptide, 2 = Cys(ACM)): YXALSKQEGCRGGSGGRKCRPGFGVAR

[6] = molecular target: T6, EGCRL2…
T6 sequence (peptide, 2 = Cys(ACM)): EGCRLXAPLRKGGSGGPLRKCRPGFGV

[7] = molecular target: T7, PE2LS2…2RPGWY2
T7 sequence (peptide, 2 = Cys(ACM)): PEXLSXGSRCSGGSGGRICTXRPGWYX

[8] = molecular target: T8, …2RPGWY2
T8 sequence (peptide, 2 = Cys(ACM)): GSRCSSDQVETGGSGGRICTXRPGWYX

[9] = molecular target: T9, …2RPGWY2A
T9 sequence (peptide, 2 = Cys(ACM)): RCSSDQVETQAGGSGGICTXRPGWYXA

[10] = molecular target: T10, E2LS2…2RPGWY2AL
T10 sequence (peptide, 2 = Cys(ACM)): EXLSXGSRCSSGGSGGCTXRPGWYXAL

[11] = molecular target: T11, EGCRL2…; remark: listed apart in the source
T11 sequence (peptide, 2 = Cys(ACM)): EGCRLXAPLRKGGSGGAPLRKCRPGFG

[12] = molecular target: T12, 2LS2…2RPGWY2AL
T12 sequence (peptide, 2 = Cys(ACM)): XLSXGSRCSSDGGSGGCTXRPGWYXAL

[13] = molecular target: T13, PE2LS2…2RPGWY2A
T13 sequence (peptide, 2 = Cys(ACM)): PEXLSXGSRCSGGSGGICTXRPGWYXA

[14] = molecular target: T14, S2…2RPGWY
T14 sequence (peptide, 2 = Cys(ACM)): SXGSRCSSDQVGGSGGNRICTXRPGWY

[15] = molecular target: T15, …2GGSGG2…
T15 sequence (peptide, 2 = Cys(ACM)): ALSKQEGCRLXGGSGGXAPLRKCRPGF

[16] = molecular target: T16, …2…2RPGWY
T16 sequence (peptide, 2 = Cys(ACM)): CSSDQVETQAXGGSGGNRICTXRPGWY

[17] = molecular target: T17, 2…
T17 sequence (peptide, 2 = Cys(ACM)): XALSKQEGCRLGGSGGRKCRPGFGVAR

[18] = molecular target: T18, WY2…2…
T18 sequence (peptide, 2 = Cys(ACM)): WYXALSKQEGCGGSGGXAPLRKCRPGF

[19] = molecular target: T19, 2…2…
T19 sequence (peptide, 2 = Cys(ACM)): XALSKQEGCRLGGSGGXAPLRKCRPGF

[20] = molecular target: T20, …2RPGWY2; remark: listed apart in the source
T20 sequence (peptide, 2 = Cys(ACM)): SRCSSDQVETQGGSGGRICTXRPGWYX

[21] = molecular target: T21, 2…2RPGWY2
T21 sequence (peptide, 2 = Cys(ACM)): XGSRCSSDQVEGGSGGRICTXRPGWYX

[22] = molecular target: T22, Y2…2…
T22 sequence (peptide, 2 = Cys(ACM)): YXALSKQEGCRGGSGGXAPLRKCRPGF

[23] = molecular target: T23, S2…2RPGWY2
T23 sequence (peptide, 2 = Cys(ACM)): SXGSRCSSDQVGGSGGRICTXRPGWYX

[24] = molecular target: T24, VPE2LS2…2RPGWY
T24 sequence (peptide, 2 = Cys(ACM)): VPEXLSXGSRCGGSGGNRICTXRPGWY

[25] = molecular target: T25, VPE2LS2…2RPGWY2AL
T25 sequence (peptide, 2 = Cys(ACM)): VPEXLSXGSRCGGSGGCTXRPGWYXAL

[26] = molecular target: T26, …2RPGWY2AL
T26 sequence (peptide, 2 = Cys(ACM)): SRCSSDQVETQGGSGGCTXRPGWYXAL

[27] = molecular target: T27, LS2…2RPGWY2AL
T27 sequence (peptide, 2 = Cys(ACM)): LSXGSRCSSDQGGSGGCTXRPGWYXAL

[28] = molecular target: T28, KQEGCRL2…
T28 sequence (peptide, 2 = Cys(ACM)): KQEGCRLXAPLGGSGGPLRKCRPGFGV

[29] = molecular target: T29, …2GGSGGCT2RPGWY2AL
T29 sequence (peptide, 2 = Cys(ACM)): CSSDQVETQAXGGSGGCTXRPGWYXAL

[30] = molecular target: T30, …2RPGWY2A; remark: listed apart in the source
T30 sequence (peptide, 2 = Cys(ACM)): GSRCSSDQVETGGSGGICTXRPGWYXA

[31] = molecular target: T31, …2RPGWY2AL; remark: listed apart in the source
T31 sequence (peptide, 2 = Cys(ACM)): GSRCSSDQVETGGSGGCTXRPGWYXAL

[32] = molecular target: T32, TREQNRI2…
T32 sequence (peptide, 2 = Cys(ACM)): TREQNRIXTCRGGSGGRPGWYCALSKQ

[33] = molecular target: T33, WY2…
T33 sequence (peptide, 2 = Cys(ACM)): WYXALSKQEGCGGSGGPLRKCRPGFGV

[34] = molecular target: T34, LS2…2RPGWY
T34 sequence (peptide, 2 = Cys(ACM)): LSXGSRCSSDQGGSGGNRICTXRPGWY

[35] = molecular target: T35, …2…2RPGWY2
T35 sequence (peptide, 2 = Cys(ACM)): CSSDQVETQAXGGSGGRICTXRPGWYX

[36] = molecular target: T36, EQNRI2…
T36 sequence (peptide, 2 = Cys(ACM)): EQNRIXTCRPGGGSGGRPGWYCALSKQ

B1: antagonistic TNFR2 antibody TNFRAB1 (antibody, V domains shown)
VH: EVQLQESGGGLVKPGGSLKLSCAASGFTFSSYVMSWVRQTPEKRLEWVATISSGGSYTYYPDSVKGRFTISRDNAKNTLYLQMSSLRSEDTAMYYCARQRVDGYSSYWYFDVWGAGTAVTVSS
VL: DIVLTQSPAIMSASPGEKVTITCSASSSVYYMYWFQQKPGTSPKLWIYSTSNLASGVPVRFSGSGSGTSYSLTISRMEAEDAATYYCQQRRNYPYTFGGGTKLEIKR
Raw luminescence data [1]: 697
Raw luminescence data [2]: 454
Raw luminescence data [3]: 247
Raw luminescence data [4]: 474
Raw luminescence data [5]: 463
Raw luminescence data [6]: 450
Raw luminescence data [7]: 585
Raw luminescence data [8]: 594
Raw luminescence data [9]: 372
Raw luminescence data [10]: 605
Raw luminescence data [11]: 312
Raw luminescence data [12]: 603
Raw luminescence data [13]: 542
Raw luminescence data [14]: 666
Raw luminescence data [15]: 560
Raw luminescence data [16]: 487
Raw luminescence data [17]: 443
Raw luminescence data [18]: 327
Raw luminescence data [19]: 439
Raw luminescence data [20]: 568
Raw luminescence data [21]: 614
Raw luminescence data [22]: 308
Raw luminescence data [23]: 465
Raw luminescence data [24]: 853
Raw luminescence data [25]: 483
Raw luminescence data [26]: 391
Raw luminescence data [27]: 510
Raw luminescence data [28]: 457
Raw luminescence data [29]: 265
Raw luminescence data [30]: 403
Raw luminescence data [31]: 464
Raw luminescence data [32]: 188
Raw luminescence data [33]: 341
Raw luminescence data [34]: 822
Raw luminescence data [35]: 597
Raw luminescence data [36]: 263

Reference: patent publication US20240270860A1
